Assay results reported in PMC9464890, “Exosite binding modulates the specificity of the immunomodulatory enzyme ScpA, a C5a inactivating bacterial protease” (Computational and Structural Biotechnology Journal, 2022).
Residue numbers refer to the chain shown, from its start.

Key:
ScpA_(S512A) = target: T1, ScpA_(S512A) (Streptococcus pyogenes, UniProt P15926 31-1032, S512A); assay: SPR; BIAcore X100, NTA sensor chip with about 20-25 RU of immobilised His-tagged C5a form (ligand), ScpA form flowed as ligate at 30 uL/min, 25 °C, 10 mM Hepes-KOH pH 7.4, 150 mM NaCl, 0.005% Tween 20, 50 uM EDTA; global fit, 1:1 Langmuir model with drifting baseline; triplicate; conditions: both partners purified
T1 construct: Plasmid pGEX ScpA(31-1032) was the template; also called C5a peptidase from Streptococcus pyogenes, active site serine to alanine mutant; source: details in Supplemental Information SI1 and SI2
T1 sequence (looked up): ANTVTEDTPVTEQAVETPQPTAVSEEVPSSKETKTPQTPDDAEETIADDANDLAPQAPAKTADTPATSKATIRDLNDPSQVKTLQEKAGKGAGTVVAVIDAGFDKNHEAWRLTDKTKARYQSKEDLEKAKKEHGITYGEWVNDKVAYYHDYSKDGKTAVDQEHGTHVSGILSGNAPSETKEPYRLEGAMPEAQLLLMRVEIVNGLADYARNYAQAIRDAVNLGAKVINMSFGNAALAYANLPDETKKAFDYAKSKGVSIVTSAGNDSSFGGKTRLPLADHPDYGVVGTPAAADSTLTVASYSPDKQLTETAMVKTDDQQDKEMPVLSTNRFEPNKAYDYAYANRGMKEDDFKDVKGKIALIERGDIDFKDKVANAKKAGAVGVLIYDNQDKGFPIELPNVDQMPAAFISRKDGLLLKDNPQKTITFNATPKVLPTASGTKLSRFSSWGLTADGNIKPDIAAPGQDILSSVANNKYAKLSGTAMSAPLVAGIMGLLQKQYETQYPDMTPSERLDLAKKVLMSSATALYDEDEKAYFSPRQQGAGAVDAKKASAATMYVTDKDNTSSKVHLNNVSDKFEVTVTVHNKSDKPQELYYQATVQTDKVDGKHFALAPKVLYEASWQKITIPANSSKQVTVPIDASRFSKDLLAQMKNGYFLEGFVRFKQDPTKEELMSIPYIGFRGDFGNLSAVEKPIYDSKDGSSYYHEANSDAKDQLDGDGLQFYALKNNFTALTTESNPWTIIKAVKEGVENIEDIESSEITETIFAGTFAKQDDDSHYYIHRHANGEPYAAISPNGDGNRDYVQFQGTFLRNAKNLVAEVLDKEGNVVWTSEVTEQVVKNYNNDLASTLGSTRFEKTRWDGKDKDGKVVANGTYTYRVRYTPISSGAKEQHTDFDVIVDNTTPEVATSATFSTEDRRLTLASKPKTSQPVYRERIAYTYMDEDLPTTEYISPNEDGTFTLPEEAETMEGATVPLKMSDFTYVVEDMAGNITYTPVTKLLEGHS

ScpA_(S512A,D889A) = target: T2, ScpA_(S512A,D889A) (Streptococcus pyogenes, UniProt P15926 31-1032, S512A | D889A); assay: as above; conditions: both partners purified
T2 construct: Made by QuikChange II from pGEX ScpA(31-1032); also called D889A_(S512A); source: details in Supplemental Information SI1 and SI2
T2 sequence (looked up): T1 sequence (looked up) with D859A

B1: Recombinant human C5a (rhC5a) (natural protein, UniProt P01031 678-751, looked up)
chain: TLQKKIEEIAAKYKHSVVKKCCYDGACVNNDETCEQRAARISLGPRCIKAFTECCVVASQLRANISHKDMQLGR
notes: human complement C5a anaphylatoxin, residues 1-74 (core 1-67 and tail 68-74); also called full length rhC5a; substrate; not shown: His6, N-terminal, kept
- Kd (ScpA_(S512A)): 34 nM
- koff (ScpA_(S512A)): 0.007 s⁻¹
- kon (ScpA_(S512A)): 209000 M⁻¹ s⁻¹
- Kd (ScpA_(S512A,D889A)): 27 nM
- koff (ScpA_(S512A,D889A)): 0.007 s⁻¹
- kon (ScpA_(S512A,D889A)): 263000 M⁻¹ s⁻¹
